Source: the nanobody polyreactivity screen of Harvey et al. (2022)

Experiment: yeast display, Sf9 membrane polyspecificity reagent, FACS + sequencing; frameworks hold sequencing errors
Method in brief: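 Polyreactivity labels are assigned by the sorting gate from which each nanobody was recovered. The gates were low and high (top ~1%), set on anti-HA fluorescence for expression and streptavidin fluorescence for reagent binding. Before sorting, galactose-induced (36–48 hours) yeast display cells were stained for 1 hour at 4 °C with 10% biotinylated, detergent-solubilized Sf9 membrane reagent.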

Row | Sequence | polyreactivity (PSR sort gate)
1 | QVQLVESGGGLVQAGGSLRLSCAASGFILDYNAMGWYRQAPGKERELVATITGRGDRTYYADSVKGRFTISRDNAKNTVYLQMNSLKPEDTAVYYCAAAYLIYSDYGPAMDYWGQGTQVTVSS | low polyreactivity
2 | QVQLVESGGGLVQAGGSLRLSCAASGRIFYKYAMGWYRQAPGKERELVAGITRSGANTYYADSVKGRFTISRDNAKNTVYLQMNSLKPEDTAVYYCAVYIPRGGRSGYWGQGTQVTVSS | high polyreactivity
3 | QEQLQERGGGLVQAGGSLRLSCAASGNISVTGFMGWYRQAPGKERELVASIGIGGTTYYADSVKGRFSMSRDNAKNTVYLKMNRLKPEDTAVYYCAVRWYDHVSRRGIGYYWGKGTQVTVSS | low polyreactivity
4 | QVQLEESGGGLVQAGGRHRLSCAASGNIFTSYTMGWYRQAPGKERELVAAISGGGGSTYYADSVKGRFTISRDNAKNTVYLQMNSLKPEDTAVYYCNAGRWWRRGYGYWGQGTQVTVSS | high polyreactivity
5 | QVQREESVGGLVQAGVSLRLSCAASGLTLAPYAMGAYRQAPGKERELVAAITFSGGSTYYADSVKGRFTISRDNAKNTVYLQMNSLKPEDTAVYYCARDTWAYKYVYPYYSWGQGTQVTVSS | low polyreactivity
6 | QVQLVESGGGLDLAGGSLRLTCAASGSTFTYYAMGWYRQAPGKERELVAAISWRGASTYYADSVKGRFTISRDNAKNTVYLQMNSLNPEDTAVNYCNAVKQRSSIFDYWGQGTQVTVSS | low polyreactivity
7 | QVQLVETGGGLVQAGGSLRLSCAASGFTFYSYAMGWSRQSPRKEREFVAAGSTYYADSVKGRFTISRDYAKNTVYLQMNSLKPEDTAVYYCAADSYDVSRRYEYEYWVQGTQVTVSS | low polyreactivity
8 | QVQLVESGGGLVQAGGSLRLSCAASGLTFALYAMGWYRQAPGKERELVAAITGSGGSTYYADSVKGRFTISRDTAKNSVYLQMNSLKPEDTAVYYCNKLFYRWRIVDKYYYCGQGTQVTVSS | high polyreactivity
9 | QVQLVESGGGLVQAGGSLRLSCAASGRTFWPYAMGWYRQAPGKERELVARITASGGRTYYADSVKWRFTISRDNAKNTVYLQMNSLKPEDTAVYYCATSYSTRIWTWRAGDYWGQGSQVTVSS | high polyreactivity
10 | QVQLVETGGGLVQASGSLRLSSAASGRIFTRYAMGWYRQAHGKERELVPAITRGGSTYYADSVKGRFTISRDNAKNTVYLQMNSLKPEDTAVYYCAADWFGISVVRDPFDHWGQGTQVTVSS | high polyreactivity
11 | QVQLVETGGGLVQAGGSLRLSCADSGSTFPGNGMVWSRQAPGKERELVAGISSGGRTYYADSVKGRVTISRDNAKNTVYLQLNRLKPEDTAVYYCATEGDYFAKYDRMDYWGQGTQVTVSS | low polyreactivity
12 | QVQLVESGGGLVQAGGSLRLSCAASGSTFGYNGLGWYRQAPGKERELVAAISGGARTYADSVKGRFTISRDNAKNTVYLQMNSLKPEDTSVYYCAADSPVSVTADDGYWGQGTQVTVSS | low polyreactivity
13 | QVQLVESGGRLVHAGGSLRISCAASGSILTRNAMGWYRPAPGKERELVAASTKRGGTTYYADSVKGRFTISRDNAKNTVYLQMNSLKQEDNAVYYCAARNGGRFSFEFNYWGQGTQVTVSS | high polyreactivity
14 | QVQLVESGGGLVQAGGSLRLSCAASGRTFPPYAMGWYRQGPGKERELVASIRRGGSTHYADSVKRRFTISRDNAKNTVYLQMNSLQPEDTAVYYCAAYYGGWSTYGAGYGGFYYWGQGTQVTVSS | high polyreactivity
15 | QLQLVESVGGLVQAGGSLRLSCASSGLIFYVSAMGSYRQAPGKERELVAAITSSGASTYYADSVKGRFTISRDNAKNTVYLQMNSLKPEDTAVYYCAGRYAGGRRAYGYWGQGTQVSVSS | high polyreactivity
16 | QVQHVESGGGLVQAGGSLRLSSAASGFTFYGYAMGWYRPARGNERELVATIRRSTGSTYYADSVKGRFTISRDNAKYSVYLQMNSLKPDDTAVYYCATRVWFPITSYDYWGQGTQVTVSS | low polyreactivity
17 | QVQLVESAGGLVQAGGRLLLSCAASGRIFAKYAMGWYRQAPGKERELVAAIRSTGGGTYYADSVKGRFTISRDNAKNTVYLQMNSLKPEDTAVYYCDARQTYYKYGYWGQGTQVTVSS | high polyreactivity
18 | QVQLVESGGGLVQAGGSLRLSCAASGFIFLYNAMGWYRQAPGKERELVATISTGGDTTYADSVKGRFTISRDNAKNTVYLQMNSVKPEDTAVYYCAKLDLSIFRWDTEFGLYDYWGQGTQVTVLS | low polyreactivity
19 | QVQLVESGGGLVQAGGSLRLSCAASGSISTNYAMGWSRQAPGKERELVAAISSSGGSTYYADSVKGRFTISRDNAKNTVYLQMNSLKPEDTAVYYCRYKFGYWGQGTQVTVSS | high polyreactivity
20 | QVQLVESGGGLVQAGCSLRLSCAASGFTFFRNAMGWYRQAPGKERELVAAISGSGGSTYYADSVKGRFTISRDNAKNTVYLQMNSLKPEDTAVYYCATYSYPAKVREAYNYWGQGTQVTVSS | low polyreactivity
21 | QVQLVESGGGLVQAGGSLRLSCAASGLTFERYAMGWYRQAPGKERELVAAISIRGGSTYYADSVKGRFTISRDNAKNTVYLQMNSLKPEDTAVYYCNAESFSFYPSWHEYDYWGQGTQVTVSS | low polyreactivity
22 | QVQLVESGGGLVQAGCSLRLSCAASGRIFRGNAMGWYRQAPGKERELVARITGNDGDTYYADSVKGRFTISRDNAKNTVYLQMNSLNPEDTAVYYCATDTSSYRRRYYYWGQGTQVTVSS | low polyreactivity

Row | Sequence | polyreactivity (PSR sort gate)
23 | QVQLQESGGGLVQAGGSLRQSCAASGSIFKVVDMGLYRQAPAKEREFVATIGEGGNTYYADSVKGRFTISRDNAKNTVYLQMNSLKPEDTAVYFYAVVLGSSYSYTYWGQGTQVTVSS | low polyreactivity
24 | QVQLVESGGGLVQAGGSLRLSCAASGFIFPAYAMGWYRQAPGKEMALVAAITSGGSTNYADSVKGRFTISRDNAKNTVYLQMNSLKPEDTAVYYCAADFDSILSVRSYRSRWYDYWGQGTQVAVSS | low polyreactivity
25 | QVQLVESGGGLVQAGGSLRLSCAASGFIFPWNAMAWYRQAPRKERELVAAISFSGGSTYYADSVKGRFTISRDNAKNTVYLQMNSLKPEDTAVYYCAKRTWDLRRTRHYYWGQGTQVTVSS | low polyreactivity
26 | QVQLVESGGGLVQAGGSLRLSCAASGSILGYYVMGWYRQAPGKERELVAVISSDGSTYYADSVKGRFTISRDNAKNTVYLQMNSLKPEDTAVYYCNADYYVEYDYWGQGTQVTVSS | low polyreactivity
27 | QVQLVESGGGLVQAGGSLRLSCAASGSTLAVYAKGWSRQAPGKERELVAVIDRGGSTYYADSVKGRFTISRDNAKNTVYLQLNCLKPEDTAVYFCNARRVKGYGYWGQGTQVTVSS | high polyreactivity
28 | QVQLVESGGGLVQAGGSLRLSCAASGRIFYNYAMGWYRQAPGKERELVASISNSGGSTYYADSVKGRFTISRDNAKNTVYLQMNSLKPEDTAVYYCARRYYYYTTYRYDYWGQGTQVSVSS | high polyreactivity
29 | QVQLVESGGGLVQAGGSLRLSCAAYGFIFKFYAMGWYRQAPGKERELVAAITSGGGRTYYADSVKGRFPISRDNAKNTVYLQMNSLKAQDSAGYYCAVDYLQYYYKKHYYGGQGTQVTVSS | high polyreactivity
30 | QVQLVESGGGLVQAGGSLRLSCAASVIIYHYYAMGWYRPAPGKERELVAAIDSGGSTYYADSVKGRFTISRDNAKNTVYLQMNSLKPEDTADYYCNAGPSVTSGYDYDYWGHGTQVTVSS | low polyreactivity
31 | QVQLVESGGGLVQAGGSLRLSCAASGFTFYRYAMGWYRQAPGNERELVAAISSGGRTTYADSVKGRFTISRDNANNTVYLQMNSLKPQDTAVYYCVFVYVYDYYYWGQGTQVTVSS | high polyreactivity
32 | QVQLVESGGGLVQAGGSLRLSCAASGSTFTYYTMAWYRQAPGKERELVAAISWSGGRTYYADSVKGRFTISRDNAKNTVYLQMNSLKPEDTAVYYCAAGPAPGHDSWGQGTQVTVSS | high polyreactivity
33 | QVQLVESGGGLVQAGGSLRLSCAASGSIFAYYAMGWYRQAPGKERELVAAITWSGGITYYADSVKGRFTISRDNAKNTVYLQMNSLKPEDTAVYYCNADEWPPYEYEYWGQGTQVTVSS | low polyreactivity
34 | QVQLVESGRGLVQAGGSLRLSSAASGSTFVNYDMGWYRQATGKERELVAAITSSGDSTYYADSVKGRFTISRDNAKNTVYLQMNSLKPEDTAVYYCNRDDAGIMDYWGQGTQVTVSS | low polyreactivity
35 | QVQLVESGGGLVQAGGSLRLSCAASGSIFDYYAMGWYRQAPGQERELVAAISVRGGSTYYADSVKGRFTISRDNANNTVYLHKNSLKPEDTAVYYCAADYAYNKYLSVEYWGQGTQVTVSS | low polyreactivity
36 | EEELVESGGGLVQAGGSLRLSCAASGSIFTHYAMGWYRPAPGKERELVAAISWSGGSTYYADSVKGRFTISRDNAKKTVYLQMNSLKPEDTAVYYCAAETYWGDDYWGQGTQVTVSS | high polyreactivity
37 | QVQLVESGGGLVQAGGSLRLSCAASGRIFTINAMGWYRQAPGKERELVAVITRGGSTKYADSVKGRFTISRDNAKNTVYLQMNSLKPEDTAVYYCAARVRAGHGKNGYWGQGTQVTVSS | high polyreactivity
38 | QVQLVESGGGLVQAGGSLRLSCAASGNTFDVYVMGWYRQAPGKERELVAAINKGGGRTYYADSVKGRFTISRDNAKNTVYLQMNSLKPEDTAVYYCAAVSPKYESSYYYWGQGTQVTVSS | high polyreactivity
39 | QVQLVESGGGLVQAGGSLRLSCAASGRTFVHYAMGWYRPAPGKERELVAAITWNGGRTYYADSVKGRFTISRDNAKNTVYLQMNSLKPEDTAVYYCAADGKYYHRRPGWPIYDYWGQGTQVTVSS | high polyreactivity
40 | QVQLVESGGGLVQAGGSLRLSCAASGRTFLYYAMGWYRQAPGKERELVAAIRRGSSTYYADSVKGRFTISRDNAKNTVYLQMNSLKPEDTAVYYCNKVYYAFRVSLYRYGYWGQGTQVTVSS | high polyreactivity
41 | QVQLVESGGGLVQAGGSLRLSCAASGFIFYSNAMGWYRQAPGKERELVAAIRSTGSTSYADSVKGRFTISRDNAKNTVYLQMNILKPEDTAVYYCAKVRYWRGYDYWGQGTQVTVSS | high polyreactivity
42 | QVQLVESGGGIVQAGGSLRISCAASGRIFSTYAMGWYRQAPGKERELVAAINKIGGSTYYADSVKGRFTISRDNAKNTVYLQMNSLKPEDTAVYYCAADAPYYPVRRYYYWGQGTQVTVSS | low polyreactivity
43 | QVQLQESGGGLVQAGGSQRLSCAASGYIFYFQYMGWYRQAPGKEREFVAAISDGANTNYADSVKGRFTISRDNAKNTEYLQMNSLKPEDTAVYYCAVYADEKYYYIYWGQGTQVTVSS | low polyreactivity
